*1 amine or outer side, *2 acyl side, *3 side chain or, on linkers, in order; H or OH if unused. Bridges are numbered along the chain shown (N, C = ends). Primed or numbered codes have the meaning given here. Where no end group is shown, it is not given here. Side-chain parts run from the residue outwards. [ ]: non-standard residue; d: D form. The star is where a group is joined. C20 diacid = O=C(O)CCCCCCCCCCCCCCCCCCC(=O)*; γGlu = O=C(O)[C@H](CCC(=O)[*:2])N[*:1]; βAsp = O=C(O)[C@H](CC(=O)[*:2])N[*:1]; Hyp = O=C(O)[C@@H]1C[C@@H](O)CN1; Cit = NC(=O)NCCC[C@H](N)C(=O)O; Orn = NCCC[C@H](N)C(=O)O; Dab = NCC[C@H](N)C(=O)O; Inp′ = not defined here; Trx′ = not defined here; AOC = not defined here; Dap = NC[C@H](N)C(=O)O; PEG = not defined here; AEEA = NCCOCCOCC(=O)O; Sar = CNCC(=O)O
T1: human amylin receptor (AMY3) on CHO-K1/Ga15/AMY3 cells (human, UniProt P30988 25-474; O60896 24-148)
T1 sequence (looked up) 1: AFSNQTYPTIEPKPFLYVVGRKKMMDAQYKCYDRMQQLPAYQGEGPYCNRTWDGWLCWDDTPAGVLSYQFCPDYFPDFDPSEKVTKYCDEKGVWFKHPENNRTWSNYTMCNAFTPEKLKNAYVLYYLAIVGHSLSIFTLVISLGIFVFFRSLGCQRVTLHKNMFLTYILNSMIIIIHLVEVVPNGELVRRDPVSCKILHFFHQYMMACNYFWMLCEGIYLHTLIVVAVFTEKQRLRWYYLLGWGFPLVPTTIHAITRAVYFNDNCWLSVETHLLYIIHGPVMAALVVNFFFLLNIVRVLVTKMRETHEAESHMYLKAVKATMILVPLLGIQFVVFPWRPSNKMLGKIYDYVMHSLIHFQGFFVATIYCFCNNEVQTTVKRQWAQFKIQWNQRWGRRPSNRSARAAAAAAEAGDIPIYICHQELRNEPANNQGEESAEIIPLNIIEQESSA
T1 sequence (looked up) 2: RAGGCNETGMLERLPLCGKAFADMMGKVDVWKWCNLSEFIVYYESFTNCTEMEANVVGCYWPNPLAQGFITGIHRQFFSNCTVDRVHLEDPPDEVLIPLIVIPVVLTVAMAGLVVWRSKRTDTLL


What follows are binders tested against T1, human amylin receptor (AMY3) on … (assay: cell-based or functional assay).

Binder	EC50, CRE-luciferase assay [pM]
{C20 diacid-γGlu}-KCNTATCATQRLADFLRHSSNNL[aK]PILPPTNVGSNTP-NH2 (disulfide 2-7 (inferred)) [PD167]	50
RCNTATCATQRLADFLRHSSNNLK([γGlu-C20 diacid])PILPPTNVGSNTP-NH2 (disulfide 2-7 (inferred)) [PD042]	111
{C20 diacid-γGlu}-KCNTATCATQRLADFLRHSSNNL[Orn]PILPPTNVGSNTP-NH2 (disulfide 2-7 (inferred)) [PD170]	41
{C20 diacid-γGlu}-KCNTATCATQRLADFLRHSSNNLNPILPPTNVGSNTP-NH2 (disulfide 2-7 (inferred)) [PD165]	50
{C20 diacid-γGlu}-KCNTATCATQRLADFLRHSSNNLPPILPPTNVGSNTP-NH2 (disulfide 2-7 (inferred)) [PD163]	84
{C20 diacid-γGlu}-KCNTATCATQRLADFLRHSSNNL[Cit]PILPPTNVGSNTP-NH2 (disulfide 2-7 (inferred)) [PD171]	53
{C20 diacid-γGlu}-KCNTATCATQRLADFLRHSSNNLRPILPPTNVGSNTP-NH2 (disulfide 2-7 (inferred)) [PD161]	26
{C20 diacid-γGlu}-KCNTATCATQRLADFLRHSSNNLSPILPPTNVGSNTP-NH2 (disulfide 2-7 (inferred)) [PD166]	54
{C20 diacid-γGlu}-KCNTATCATQRLADFLRHSSNNL[Dab]PILPPTNVGSNTP-NH2 (disulfide 2-7 (inferred)) [PD169]	39
RCNTATCATQRLAEFLRHSSK([AEEA-AEEA-γGlu-C20 diacid])NLGPILPPTNVGSNTP-NH2 (disulfide 2-7 (inferred)) [PD001]	42
{C20 diacid-γGlu}-KCNTATCATQRLADFLRHSSNNLHPILPPTNVGSNTP-NH2 (disulfide 2-7 (inferred)) [PD162]	35
{C20 diacid-γGlu}-KCNTATCATQRLADFLRHSSNNLKPILPPTNVGSNTP-NH2 (disulfide 2-7 (inferred)) [PD160]	35
RCNTATCATQRLAEFLRHSSNNLK([γGlu-C20 diacid])PILPPTNVGSGT[Hyp]-NH2 (disulfide 2-7 (inferred)) [PD041]	259
{C20 diacid-γGlu}-KCNTATCATQRLADFLRHSSNNL[Dap]PILPPTNVGSNTP-NH2 (disulfide 2-7 (inferred)) [PD168]	41
{C20 diacid-γGlu}-KCNTATCATQRLADFLRHSSNNLDPILPPTNVGSNTP-NH2 (disulfide 2-7 (inferred)) [PD164]	111

More lines, now with the values ahead:

EC50, CRE-luciferase assay [pM]	Binder
64	{C20 diacid-γGlu}-KCNTATCATQRLADFLRHSSNNL[Trx′]PILPPTNVGSNTP-NH2 (disulfide 2-7 (inferred); reading uncertain) [PD173]
22	{C20 diacid}-D[AEEA][AEEA]KCNTATCATQRLADFLRHSSNNLKPILPPTNVGSNT[Hyp]-NH2 (disulfide 5-10 (inferred)) [PD181]
75	{C20 diacid-γGlu}-KCNTATCATQRLADFLRHSSNNL[Sar]PILPPTNVGSNTP-NH2 (disulfide 2-7 (inferred)) [PD172]
17	{C20 diacid-Inp′-AEEA-AEEA}-KCNTATCATQRLADFLRHSSNNLKPILPPTNVGSNT[Hyp]-NH2 (disulfide 2-7 (inferred)) [PD179]
46	{C20 diacid-γGlu}-KCNTATCATQRLADFLRHSSNNL[AOC]PILPPTNVGSNTP-NH2 (disulfide 2-7 (inferred); reading uncertain) [PD174]
52	{C20 diacid-PEG-PEG-PEG-PEG-PEG-PEG-PEG-PEG-γGlu}-KCNTATCATQRLADFLRHSSNNLKPILPPTNVGSNT[Hyp]-NH2 (disulfide 2-7 (inferred); reading uncertain) [PD186]
40	{C20 diacid-βAsp-AEEA-AEEA}-KCNTATCATQRLADFLRHSSNNLKPILPPTNVGSNT[Hyp]-NH2 (disulfide 2-7 (inferred)) [PD183]
17	{C20 diacid-AEEA-AEEA-Trx′}-KCNTATCATQRLADFLRHSSNNLKPILPPTNVGSNT[Hyp]-NH2 (disulfide 2-7 (inferred); reading uncertain) [PD178]
34	{C20 diacid-AEEA-AEEA}-DKCNTATCATQRLADFLRHSSNNLKPILPPTNVGSNT[Hyp]-NH2 (disulfide 3-8 (inferred)) [PD182]
29	{C20 diacid-AEEA-AEEA-γGlu}-KCNTATCATQRLADFLRHSSNNLKPILPPTNVGSNT[Hyp]-NH2 (disulfide 2-7 (inferred)) [PD176]
24	{C20 diacid-Trx′-AEEA-AEEA}-KCNTATCATQRLADFLRHSSNNLKPILPPTNVGSNT[Hyp]-NH2 (disulfide 2-7 (inferred); reading uncertain) [PD177]
16	{C20 diacid-AEEA-AEEA-Inp′}-KCNTATCATQRLADFLRHSSNNLKPILPPTNVGSNT[Hyp]-NH2 (disulfide 2-7 (inferred)) [PD180]
37	{C20 diacid-AEEA-AEEA-βAsp}-KCNTATCATQRLADFLRHSSNNLKPILPPTNVGSNT[Hyp]-NH2 (disulfide 2-7 (inferred)) [PD184]

Reference: patent US20260115256A1 (HANGZHOU SCIWIND BIOSCIENCES, published 2026)
